Several values for one entry are separate records, joined by “and”; a condition that tells them apart may be missing. Equal entries are not always repeated. Where two headings read alike, the source gives them in different places.
Columns and labels:
[1] = target: full length human G208C NFU1 (human) (UniProt Q9UMS0); assay: AUC
[2] = target: full length human G208C NFU1 (human) (UniProt Q9UMS0); assay: AUC; remark: listed apart in the source

Substance: full length human G208C NFU1 (from UniProt Q9UMS0 10-254) (natural protein)
- percent dimer (holo protein) [1]: 65.6%
- stoichiometry N [1]: 2 and 4
- percent dimer (with 1 mM TCEP) [2]: 60%
- percent dimer (without TCEP) [2]: 58%
- percent higher order oligomer (with 1 mM TCEP) [2]: 1.5%
- percent higher order oligomer (without TCEP) [2]: 6%
- percent monomer (with 1 mM TCEP) [2]: 30%
- percent monomer (without TCEP) [2]: 29%
- stoichiometry N [2]: 2

From publication PMC5466808
